From US20050221292A1
Numbering of substitutions follows the chain as printed.

Assays:
[1] = molecular target: T1, Fct14(MMP#6)/Linker/HN chimeric protein (UniProt P04855)
T1 sequence: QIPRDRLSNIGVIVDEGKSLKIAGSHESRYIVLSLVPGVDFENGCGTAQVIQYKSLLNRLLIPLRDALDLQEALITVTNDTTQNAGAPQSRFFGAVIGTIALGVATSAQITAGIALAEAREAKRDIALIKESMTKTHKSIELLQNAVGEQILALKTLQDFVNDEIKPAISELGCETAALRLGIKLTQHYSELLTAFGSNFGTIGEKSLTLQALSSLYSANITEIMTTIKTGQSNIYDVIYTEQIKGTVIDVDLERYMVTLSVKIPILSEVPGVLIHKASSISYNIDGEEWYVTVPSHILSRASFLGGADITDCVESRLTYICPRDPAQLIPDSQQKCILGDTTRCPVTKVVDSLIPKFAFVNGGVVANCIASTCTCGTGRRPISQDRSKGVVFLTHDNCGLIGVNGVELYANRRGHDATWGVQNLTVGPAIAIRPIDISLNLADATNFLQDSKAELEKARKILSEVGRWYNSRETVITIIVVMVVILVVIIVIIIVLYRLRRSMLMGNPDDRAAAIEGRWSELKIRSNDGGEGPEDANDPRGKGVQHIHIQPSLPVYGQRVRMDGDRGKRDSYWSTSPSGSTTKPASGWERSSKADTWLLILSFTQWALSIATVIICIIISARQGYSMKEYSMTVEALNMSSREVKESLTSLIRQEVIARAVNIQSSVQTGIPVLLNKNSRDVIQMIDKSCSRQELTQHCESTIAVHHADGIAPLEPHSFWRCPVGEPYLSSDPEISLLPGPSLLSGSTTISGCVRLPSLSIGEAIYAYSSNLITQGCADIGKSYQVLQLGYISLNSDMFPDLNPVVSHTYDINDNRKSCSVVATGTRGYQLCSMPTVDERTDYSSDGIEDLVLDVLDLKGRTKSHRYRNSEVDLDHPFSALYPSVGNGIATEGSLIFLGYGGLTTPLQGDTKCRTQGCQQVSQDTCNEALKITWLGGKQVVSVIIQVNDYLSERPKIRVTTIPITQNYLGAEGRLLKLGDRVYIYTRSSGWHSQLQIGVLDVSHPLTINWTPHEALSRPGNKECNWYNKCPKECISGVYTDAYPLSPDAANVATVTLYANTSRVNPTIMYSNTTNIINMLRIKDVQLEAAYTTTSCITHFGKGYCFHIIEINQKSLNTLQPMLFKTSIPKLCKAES

[2] = molecular target: T2, F(MMP#2): Sendai virus F protein with the activation site modified to PLG↓MTS (UniProt P04855)
T2 sequence: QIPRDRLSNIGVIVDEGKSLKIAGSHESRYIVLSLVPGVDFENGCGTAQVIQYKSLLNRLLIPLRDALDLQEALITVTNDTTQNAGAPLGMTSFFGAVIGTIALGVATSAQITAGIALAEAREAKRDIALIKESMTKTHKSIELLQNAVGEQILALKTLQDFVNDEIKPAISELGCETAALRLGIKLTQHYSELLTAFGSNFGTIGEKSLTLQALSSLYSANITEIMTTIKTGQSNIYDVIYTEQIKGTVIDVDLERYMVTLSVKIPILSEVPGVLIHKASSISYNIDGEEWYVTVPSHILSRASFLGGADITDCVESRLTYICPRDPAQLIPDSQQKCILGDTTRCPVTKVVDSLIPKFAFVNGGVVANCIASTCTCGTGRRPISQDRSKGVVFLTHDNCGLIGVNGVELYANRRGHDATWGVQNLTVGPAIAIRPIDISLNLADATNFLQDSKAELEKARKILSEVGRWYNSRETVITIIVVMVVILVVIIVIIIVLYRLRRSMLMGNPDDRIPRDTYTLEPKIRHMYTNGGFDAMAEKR

[3] = molecular target: T3, F(uPA): Sendai virus F protein with the activation site modified to VGR (UniProt P04855)
T3 sequence: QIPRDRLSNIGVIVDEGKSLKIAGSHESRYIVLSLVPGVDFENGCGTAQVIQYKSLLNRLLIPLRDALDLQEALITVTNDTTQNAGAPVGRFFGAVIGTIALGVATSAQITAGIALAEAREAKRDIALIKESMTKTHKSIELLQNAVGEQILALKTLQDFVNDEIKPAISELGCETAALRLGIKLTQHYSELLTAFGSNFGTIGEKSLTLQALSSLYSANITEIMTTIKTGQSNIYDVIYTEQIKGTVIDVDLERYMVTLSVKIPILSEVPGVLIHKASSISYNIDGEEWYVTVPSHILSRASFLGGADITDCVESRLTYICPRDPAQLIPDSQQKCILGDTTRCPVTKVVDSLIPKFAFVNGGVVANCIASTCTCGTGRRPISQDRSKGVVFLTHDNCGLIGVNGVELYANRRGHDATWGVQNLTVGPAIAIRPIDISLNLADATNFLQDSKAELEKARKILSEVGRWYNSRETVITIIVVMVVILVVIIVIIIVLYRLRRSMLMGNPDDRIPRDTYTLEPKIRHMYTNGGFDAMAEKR

[4] = molecular target: T4, Sendai virus (SeV) F protein, wild type (unmodified F) (UniProt P04855)
T4 sequence: T3 sequence with V89Q, G90S

type IV collagenase (Clostridium histolyticum) (ICN)
fusogenicity (syncytium formation) relative to the MMP#2 chimera, against concentration of added collagenase [1]: MMP#6 was found to have two to three times higher fusogenicity compared to MMP#2

active MMP-9 (COSMO BIO)
cleavage of F0 to F1 (Western blotting of protease-treated viral particles) [2]: MMP-9 cleaved that of the M-deficient SeV vector having the MMP#2 sequence inserted into the F protein

trypsin (Gibco-BRL)
cleavage of F0 to F1 (Western blotting; data not shown) [3]: for the M-deficient SeV vector into which uPA sequence is inserted, cleavage of F1 was observed in the presence of trypsin when the degradation time was prolonged to four hours | cleavage of F0 to F1 (Western blotting of protease-treated viral particles) [4]: trypsin cleaved the F protein of the F-unmodified M-deficient SeV vector

uPA (urokinase-type plasminogen activator)
cleavage of F0 to F1 (Western blotting of protease-treated viral particles) [3]: uPA cleaved that of the M-deficient SeV vector having the uPA sequence inserted into the F protein | syncytia formation in LLC-MK2 (exogenous protease) [3]: upon further modification of the F protein, showed the formation of syncytia, multinuclear cells, in the presence of uPA
